Results as given in patent US20210388087A1 (Chugai, published 2021).
Substitutions are numbered along the chain they refer to. In names and notes the source's numbering stands.

B1: H183/L072 VH F27S (antibody, name in Kabat numbering, V domains shown)
VH: QVQLVESGGGLVQPGRSLRLSCAASGSTFSNAWMHWVRQAPGKGLEWVAQIKDKGNAYAAYYAPSVKGRFTISRDDSKNSIYLQMNSLKTEDTAVYYCHYVHYASASTVLPAFGVDAWGQGTTVTVSS
VL: DIVMTQSPLSLPVTPGEPASISCQASQELVHMNRNTYLHWYQQKPGQAPRLLIYKVSNRFPGVPDRFSGSGSGTDFTLKISRVEAEDVGVYYCAQGTSVPFTFGQGTKLEIK
B2: H183/L072 VH F29T (antibody, name in Kabat numbering, V domains shown)
VH: B1 VH with S27F, F29T
VL: B1 VL
B3: H183/L072 VH G52cL (antibody, name in Kabat numbering, V domains shown)
VH: B1 VH with S27F, G55L
VL: B1 VL
B4: H183/L072 VH G26Q (antibody, name in Kabat numbering, V domains shown)
VH: B1 VH with G26Q, S27F
VL: B1 VL
B5: H183/L072 VH G52cF (antibody, name in Kabat numbering, V domains shown)
VH: B1 VH with S27F, G55F
VL: B1 VL
B6: H183/L072 VH F29M (antibody, name in Kabat numbering, V domains shown)
VH: B1 VH with S27F, F29M
VL: B1 VL
B7: H183/L072 VH G26R (antibody, name in Kabat numbering, V domains shown)
VH: B1 VH with G26R, S27F
VL: B1 VL
B8: H183/L072 VH G26I (antibody, name in Kabat numbering, V domains shown)
VH: B1 VH with G26I, S27F
VL: B1 VL
B9: H183/L072 VH F27W (antibody, name in Kabat numbering, V domains shown)
VH: B1 VH with S27W
VL: B1 VL
B10: H183/L072 VH G26F (antibody, name in Kabat numbering, V domains shown)
VH: B1 VH with G26F, S27F
VL: B1 VL
B11: H183/L072 VH F100gM (antibody, name in Kabat numbering, V domains shown)
VH: B1 VH with S27F, F113M
VL: B1 VL
B12: H183/L072 VH F100gA (antibody, name in Kabat numbering, V domains shown)
VH: B1 VH with S27F, F113A
VL: B1 VL
B13: H183/L072 VH G52cN (antibody, name in Kabat numbering, V domains shown)
VH: B1 VH with S27F, G55N
VL: B1 VL
B14: H183/L072 VH G52cK (antibody, name in Kabat numbering, V domains shown)
VH: B1 VH with S27F, G55K
VL: B1 VL
B15: H183/L072 VH G26E (antibody, name in Kabat numbering, V domains shown)
VH: B1 VH with G26E, S27F
VL: B1 VL
B16: H183/L072 VH G26S (antibody, name in Kabat numbering, V domains shown)
VH: B1 VH with G26S, S27F
VL: B1 VL
B17: H183/L072 VH F100gL (antibody, name in Kabat numbering, V domains shown)
VH: B1 VH with S27F, F113L
VL: B1 VL
B18: H183/L072 VH G52cR (antibody, name in Kabat numbering, V domains shown)
VH: B1 VH with S27F, G55R
VL: B1 VL
B19: H183/L072 VH G26A (antibody, name in Kabat numbering, V domains shown)
VH: B1 VH with G26A, S27F
VL: B1 VL
B20: H183/L072 VH G26H (antibody, name in Kabat numbering, V domains shown)
VH: B1 VH with G26H, S27F
VL: B1 VL
B21: H183/L072 VH G52cM (antibody, name in Kabat numbering, V domains shown)
VH: B1 VH with S27F, G55M
VL: B1 VL
B22: H183/L072 VH G52cE (antibody, name in Kabat numbering, V domains shown)
VH: B1 VH with S27F, G55E
VL: B1 VL
B23: H183/L072 VH G26L (antibody, name in Kabat numbering, V domains shown)
VH: B1 VH with G26L, S27F
VL: B1 VL
B24: H183/L072 VH F29Y (antibody, name in Kabat numbering, V domains shown)
VH: B1 VH with S27F, F29Y
VL: B1 VL
B25: H183/L072 VH G52cQ (antibody, name in Kabat numbering, V domains shown)
VH: B1 VH with S27F, G55Q
VL: B1 VL
B26: H183/L072 VH G52cP (antibody, name in Kabat numbering, V domains shown)
VH: B1 VH with S27F, G55P
VL: B1 VL
B27: H183/L072 VH G52cI (antibody, name in Kabat numbering, V domains shown)
VH: B1 VH with S27F, G55I
VL: B1 VL
B28: H183/L072 VH F29L (antibody, name in Kabat numbering, V domains shown)
VH: B1 VH with S27F, F29L
VL: B1 VL
B29: H183/L072 VH G26N (antibody, name in Kabat numbering, V domains shown)
VH: B1 VH with G26N, S27F
VL: B1 VL
B30: H183/L072 VH F29V (antibody, name in Kabat numbering, V domains shown)
VH: B1 VH with S27F, F29V
VL: B1 VL
B31: H183/L072 VH F100gI (antibody, name in Kabat numbering, V domains shown)
VH: B1 VH with S27F, F113I
VL: B1 VL
B32: H183/L072 VH F29W (antibody, name in Kabat numbering, V domains shown)
VH: B1 VH with S27F, F29W
VL: B1 VL
B33: H183/L072 VH F27Y (antibody, name in Kabat numbering, V domains shown)
VH: B1 VH with S27Y
VL: B1 VL
B34: H183/L072 VH G52cS (antibody, name in Kabat numbering, V domains shown)
VH: B1 VH with S27F, G55S
VL: B1 VL
B35: H183/L072 VH G26T (antibody, name in Kabat numbering, V domains shown)
VH: B1 VH with G26T, S27F
VL: B1 VL
B36: H183/L072 VH F29P (antibody, name in Kabat numbering, V domains shown)
VH: B1 VH with S27F, F29P
VL: B1 VL
B37: H183/L072 VH G52cH (antibody, name in Kabat numbering, V domains shown)
VH: B1 VH with S27F, G55H
VL: B1 VL
B38: H183/L072 VH G26Y (antibody, name in Kabat numbering, V domains shown)
VH: B1 VH with G26Y, S27F
VL: B1 VL
B39: H183/L072 VH G52cA (antibody, name in Kabat numbering, V domains shown)
VH: B1 VH with S27F, G55A
VL: B1 VL
B40: H183/L072 VH G52cT (antibody, name in Kabat numbering, V domains shown)
VH: B1 VH with S27F, G55T
VL: B1 VL
B41: H183/L072 VH F27T (antibody, name in Kabat numbering, V domains shown)
VH: B1 VH with S27T
VL: B1 VL
B42: H183/L072 VH G26P (antibody, name in Kabat numbering, V domains shown)
VH: B1 VH with G26P, S27F
VL: B1 VL
B43: H183/L072 VH F27V (antibody, name in Kabat numbering, V domains shown)
VH: B1 VH with S27V
VL: B1 VL
B44: H183/L072 VH G52cD (antibody, name in Kabat numbering, V domains shown)
VH: B1 VH with S27F, G55D
VL: B1 VL
B45: H183/L072 VH F29I (antibody, name in Kabat numbering, V domains shown)
VH: B1 VH with S27F, F29I
VL: B1 VL
B46: H183/L072 VH G26D (antibody, name in Kabat numbering, V domains shown)
VH: B1 VH with G26D, S27F
VL: B1 VL
B47: H183/L072 VH G26W (antibody, name in Kabat numbering, V domains shown)
VH: B1 VH with G26W, S27F
VL: B1 VL

These binders were tested against T1, Human CD137 ECD (human) (assay: single mutant vs template dBBDu183H).
T1 construct: also called 4-1BB
T1 sequence (chain, as listed by the source limits assumed): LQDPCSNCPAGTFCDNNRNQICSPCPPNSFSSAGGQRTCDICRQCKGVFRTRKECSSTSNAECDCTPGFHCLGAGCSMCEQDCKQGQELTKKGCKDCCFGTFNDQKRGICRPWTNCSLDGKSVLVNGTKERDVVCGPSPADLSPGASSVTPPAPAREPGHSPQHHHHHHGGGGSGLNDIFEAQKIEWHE

| fold change of affinity [fold] | Binder |
| --- | --- |
| 0.3 | B1 |
| 0.1 | B2 |
| 0.8 | B3 |
| 0.4 | B4 |
| 1.7 | B5 |
| 0.3 | B6 |
| 0.3 | B7 |
| 0.3 | B8 |
| 0.3 | B9 |
| 0.3 | B10 |
| 0.6 | B11 |
| 0.5 | B12 |
| 0.9 | B13 |
| 0.2 | B14 |
| 0.5 | B15 |
| 0.4 | B16 |
| 1.2 | B17 |
| 0.2 | B18 |
| 0.4 | B19 |
| 0.4 | B20 |
| 0.6 | B21 |
| 0.8 | B22 |
| 0.3 | B23 |
| 0.2 | B24 |

| fold change of affinity [fold] | Binder |
| --- | --- |
| 0.7 | B25 |
| 0.4 | B26 |
| 0.7 | B27 |
| 0.3 | B28 |
| 0.5 | B29 |
| 0.1 | B30 |
| 1 | B31 |
| 0.1 | B32 |
| 0.4 | B33 |
| 1.3 | B34 |
| 0.5 | B35 |
| 0.1 | B36 |
| 1.3 | B37 |
| 0.3 | B38 |
| 0.8 | B39 |
| 1 | B40 |
| 0.3 | B41 |
| 0.1 | B42 |
| 0.3 | B43 |
| 0.6 | B44 |
| 0.3 | B45 |
| 0.8 | B46 |
| 0.3 | B47 |
